Measured values taken from publication PMC2944808, “Binding between Crossveinless-2 and Chordin Von Willebrand Factor Type C Domains Promotes BMP Signaling by Blocking Chordin Activity” (PLoS ONE, 2010).

T1: Chordin, full-length, mouse (mouse, UniProt Q9Z0E2 27-948)
T1 construct: Chordin, mouse, full-length; source: SF9 cells, purified as described [12]
T1 sequence (looked up): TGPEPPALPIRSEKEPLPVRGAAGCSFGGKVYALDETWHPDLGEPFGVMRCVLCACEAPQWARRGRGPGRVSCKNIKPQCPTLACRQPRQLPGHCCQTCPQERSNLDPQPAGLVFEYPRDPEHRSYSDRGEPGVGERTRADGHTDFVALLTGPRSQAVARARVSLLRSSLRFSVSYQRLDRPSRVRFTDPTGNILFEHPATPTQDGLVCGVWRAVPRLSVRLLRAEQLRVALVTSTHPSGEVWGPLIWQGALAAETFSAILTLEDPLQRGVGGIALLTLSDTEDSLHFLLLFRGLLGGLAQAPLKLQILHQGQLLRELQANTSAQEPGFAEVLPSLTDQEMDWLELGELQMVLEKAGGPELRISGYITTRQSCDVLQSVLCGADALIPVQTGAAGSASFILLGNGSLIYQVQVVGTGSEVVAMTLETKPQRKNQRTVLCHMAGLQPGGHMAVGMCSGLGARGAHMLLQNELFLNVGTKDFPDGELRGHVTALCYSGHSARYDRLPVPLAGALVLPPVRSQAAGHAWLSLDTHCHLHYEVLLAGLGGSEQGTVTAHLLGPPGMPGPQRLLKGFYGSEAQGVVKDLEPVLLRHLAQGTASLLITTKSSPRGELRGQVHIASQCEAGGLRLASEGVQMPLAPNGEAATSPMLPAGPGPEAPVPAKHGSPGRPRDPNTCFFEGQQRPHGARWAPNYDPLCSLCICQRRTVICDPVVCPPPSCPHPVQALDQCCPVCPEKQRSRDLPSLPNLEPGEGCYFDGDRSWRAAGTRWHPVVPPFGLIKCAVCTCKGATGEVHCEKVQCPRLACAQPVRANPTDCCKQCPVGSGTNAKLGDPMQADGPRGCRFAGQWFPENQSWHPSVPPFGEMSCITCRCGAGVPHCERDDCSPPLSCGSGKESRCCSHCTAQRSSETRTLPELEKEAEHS


Columns and labels:
Conditions in all cases: both partners purified
BMP2, human = target: T2, BMP2, human (human, UniProt P12643 283-396); experiment: SPR; BIAcore 2000; BMP2 immobilised, CV2 proteins perfused; apparent KD from koff/kon; 6 to 9 analyte concentrations, at least three independent experiments
T2 construct: Bone morphogenetic protein 2 (BMP2), human; The discussion speaks of 'the BMP dimer'; also called Bone morphogenetic protein 2; source: E. coli, purified as described [40]

[1] = target: T1, Chordin, full-length, mouse; experiment: SPR; BIAcore 2000; Chordin immobilised, CV2 proteins perfused; apparent KD from koff/kon; 6 to 9 analyte concentrations, at least three independent experiments
[2] = target: T3, VWC2 domain of Chordin, mouse (mouse); experiment: SPR; BIAcore 2000; VWC2 domain of Chordin immobilised, CV2 proteins perfused; apparent KD from koff/kon; 6 to 9 analyte concentrations, at least three independent experiments
T3 construct: Chordin, mouse, von Willebrand factor type C domain 2 (VWC2); also called Chordin VWC2; VWC2 of Chordin; source: SF9 cells, purified as described [12]

T2 sequence (P12643 283-396): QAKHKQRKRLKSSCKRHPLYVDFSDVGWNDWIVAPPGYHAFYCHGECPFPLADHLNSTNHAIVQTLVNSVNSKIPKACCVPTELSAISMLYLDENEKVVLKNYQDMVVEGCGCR

Kd (BMP2, human) [nM]	Kd [1] [nM]	Kd [2] [nM]	Binder
21	180	145	CV2-VWC1-4 (domain or fragment) not shown
50000	178	180	CV2 ΔClip (domain or fragment) not shown
